Residue numbers refer to the chain shown, from its start.
B1: SEQ ID NO 196 (designed binder)
chain: MLPAPKNLVVSRVTEDSARLSWTAPDAAFDSFNIHYVEWWVLGEAIVLTVPGSERSYDLTGLKPGTEYPVYIYGVKGGPKSIPLSAIFTT
B2: SEQ ID NO 201 (designed binder)
chain: B1 chain with H35D, V37W, W39T, L42I, P69E, Y71I, Y73P, P79T, K80I, I82P
B3: SEQ ID NO 208 (designed binder)
chain: MLPAPKNLVVSRVTEDSARLSWTAPDAAFDSFGIVYREPYVGGEAIVLTVPGSERSYDLTGLKPGTEYGVPIPGVKGGYDSGPLSAIFTT
B4: SEQ ID NO 195 (designed binder)
chain: MLPAPKNLVVSRVTEDSARLSWTAPDAAFDSFPIEYDEIPFWGEAIVLTVPGSERSYDLTGLKPGTEYRVWIHGVKGGNSSWPLSAIFTT
B5: SEQ ID NO 174 (designed binder)
chain: MLPAPKNLVVSRVTEDSARLSWTAPDAAFDSFFIGYLEPQPPGEAIVLTVPGSERSYDLTGLKPGTEYKVVIQGVKGGTPSEPLSAIFTT
B6: SEQ ID NO 177 (designed binder)
chain: B5 chain with K69N, V71T, T79R, P80A, E82G
B7: SEQ ID NO 175 (designed binder)
chain: B5 chain with K69S, T79F, E82D
B8: SEQ ID NO 211 (designed binder)
chain: B5 chain with F33W, G35N, L37Y, P39A, P42D, K69D, V71E, Q73A, P80A, E82L
B9: SEQ ID NO 192 (designed binder)
chain: B5 chain with P25L, K69N, V71T, T79F, E82M
B10: SEQ ID NO 182 (designed binder)
chain: B5 chain with Q40Y, K69V, V71S, E82Q
B11: SEQ ID NO 207 (designed binder)
chain: B5 chain with K69N, V71T, F88S
B12: SEQ ID NO 45 (designed binder)
chain: B5 chain with F33A, G35Y, P39S, Q40Y, P42E, K69W, V71G, Q73D, P80W, E82S
B13: SEQ ID NO 189 (designed binder)
chain: MLPAPKNLVVSRVTEDSARLSWTAPDAAFDSFHEWVYFGEAIVLTVPGSERSYDLTGLKPGTEYFVDIWGVKGGTVSKPLSAIFTT
B14: SEQ ID NO 193 (designed binder)
chain: MLPAPKNLVVSRVTEDSARLSWTAPDAAFDSFTIWYAEAVGNGEAIVLTVPGSERSYDLTGLKPGTEYWVDIWGVKGGEFSSPLSAIFTT
B15: SEQ ID NO 197 (designed binder)
chain: B14 chain with T33K, W35D, A37L, A39I, V40N, G41D, W69P, D71Y, E79Y, F80P
B16: SEQ ID NO 190 (designed binder)
chain: MLPAPKNLVVSRVTEDSARLSWTAPDAAFDSFFIGYPEYPATGEAITLFVPGSERSYDLTGLKPGTEYNVVIQGVKGGRPSNPLVVAFTT
B17: SEQ ID NO 187 (designed binder)
chain: MLPAPKNLVVSRVTEDSARLSWTAPDAAFDSFVIEYFEFVGYGEAIVLTVPGSERSYDLTGLKPGTEYSVGIYGVKGGKLSPPLSAIFTT
B18: SEQ ID NO 46 (designed binder)
chain: B17 chain with V33T, V40T, Y42T, S69Y, G71S, K79L, P82A
B19: SEQ ID NO 212 (designed binder)
chain: B17 chain with V33I, F37W, F39Q, V40I, Y42V, S69W, K79L, P82S
B20: SEQ ID NO 180 (designed binder)
chain: MLPAPKNLVVSRVTEDSARLSWTAPDAAFDSFEISYYEMRGYGEAIVLTVPGSERSYDLTGLKPGTEYSVLIHGVEGGDYSSPLSAISTT
B21: SEQ ID NO 186 (designed binder)
chain: MLPAPKNLVVSRVTEDSARLSWTAPDAAFDSFFIGYLESAEAIVLTVPGSERSYDLTGLKPGTEYLVTIQGVKGGIASDPLSAIFTT
B22: SEQ ID NO 213 (designed binder)
chain: MLPAPKNLVVSRVTEDSARLSWTAPDAAFDSFWIYYWEIERAGEAIRLDVPGSERSYDLTGLKPGTEYRVDIWGVKGGPTSGPLRATFTT
B23: SEQ ID NO 183 (designed binder)
chain: MLPAPKNLVVSRVTEDSARLSWTAPDAAFDSFLIPYAETSPSGEAIVLTVPGSERSYDLTGLKPGTEYSVLIHGVKGGRPSNPLVAAFTT
B24: SEQ ID NO 204 (designed binder)
chain: MLPAPKNLVVSRVTEDSARLPWTAPDAAFDSFWISYYESVGYGEAIVLTVPGSERSYDLTGLKPGTEYYVDISGVKGGVYSLPLSAIFTT
B25: SEQ ID NO 198 (designed binder)
chain: MLPAPKNLVVSRVTEDSARLSWTAPDAAFDSFLIAYNEDRKFGEAIVLTVPGSERSYDLTGLKPGTEYDVWIEGVKGGSLSFPLSAIFTT
B26: SEQ ID NO 199 (designed binder)
chain: MLPAPKNLVVSRVTEDSARLSWTAPDAAFDSFGIRYFEWWDLGEAIVLTVPGSERSYDPTGLKPGTEYNVTIQGVKGGFPSMPLSAIFTT
B27: SEQ ID NO 185 (designed binder)
chain: MLPAPKNLVVSRVTEDSARLSWTAPDAAFDSFEIDYDELAIYGEAIVLTVPGSERSYDLTGLKPGTEYGVMIIGVKGGLPSDPLSAIFTT
B28: SEQ ID NO 194 (designed binder)
chain: B27 chain with G69R, M71F, I73Y, L79W, P80T, D82W, A86T
B29: SEQ ID NO 205 (designed binder)
chain: B4 chain with P33D, E35D, I39P, P40A, F41W, W42N, W71F, H73Y, S80T
B30: SEQ ID NO 44 (designed binder)
chain: MLPAPKNLVVSRVTEDSARLSWTAPDAAFDSFYIEYYESLPDGEAIVLTVPGSERSYDLTGLKPGTEYAVYIYGVKGGYYSRPLSAIFTT
B31: SEQ ID NO 203 (designed binder)
chain: B30 chain with F29L, Y33R, L40Y, P41G, D42H, A69D, Y71G
B32: SEQ ID NO 206 (designed binder)
chain: B4 chain with P33D, I39L, P40W, F41K, W42N, W71F, H73Y, N79Y, S80G, W82F
B33: SEQ ID NO 200 (designed binder)
chain: B30 chain with S39W, L40M, P41H, D42T, A69S, Y80P, R82S
B34: SEQ ID NO 202 (designed binder)
chain: B30 chain with E35D, Y37L, S39L, L40T, P41Y, D42S, A69Y, Y80P, R82S
B35: SEQ ID NO 47 (designed binder)
chain: B14 chain with V40L, N42D, W69F, W73Y, E79F, F80W, S82L
B36: SEQ ID NO 210 (designed binder)
chain: MLPAPKNLVVSRVTEDSARLSWTAPDAAFDSFSIVYGERFVNGEAIVLTVPGSERSYDLTGLKPGTEYHVYIDGVKGGDLSWPLSAIFTT
B37: SEQ ID NO 191 (designed binder)
chain: MLPAPENLVVSRVTEDSARLSWTAPDAAFDSFEITYEENWRRGEAIVLTVPGSERSYDLTGPKPGTEYIVIIQGVKGGAESWPLSAIFTT
B38: SEQ ID NO 173 (designed binder)
chain: MLPAPKNLVVSRVTEDSARLSWTAPDAAFDSFTIHYRELYVQAIVLTVPGSERSYDLTGLKPGTEYLVMIPGVKGGPTSVPLSAIFTT
B39: SEQ ID NO 176 (designed binder)
chain: MLPAPKNLVVSRVTEDSARLSWTAPDAAFDSFPIAYAEPRPDGEAIVLTVPGSERSYDLTGLKPGTEYSVGIHGVKGGHDSSPLSAIFTT
B40: SEQ ID NO 179 (designed binder)
chain: B39 chain with P33Y, S69P, G71P, H73P, H79P, D80G
B41: SEQ ID NO 188 (designed binder)
chain: B23 chain with R79K, P80L, N82L, V85S, A87I
B42: SEQ ID NO 178 (designed binder)
chain: B39 chain with P33D, R40I, D42R, G71L, H79R, D80R, S82V
B43: SEQ ID NO 181 (designed binder)
chain: B39 chain with R12H, G71L, H79L, D80L

molecular target: human serum albumin (human) (UniProt P02768); assay: screening ELISA
Sequence (P02768 25-609 limits assumed): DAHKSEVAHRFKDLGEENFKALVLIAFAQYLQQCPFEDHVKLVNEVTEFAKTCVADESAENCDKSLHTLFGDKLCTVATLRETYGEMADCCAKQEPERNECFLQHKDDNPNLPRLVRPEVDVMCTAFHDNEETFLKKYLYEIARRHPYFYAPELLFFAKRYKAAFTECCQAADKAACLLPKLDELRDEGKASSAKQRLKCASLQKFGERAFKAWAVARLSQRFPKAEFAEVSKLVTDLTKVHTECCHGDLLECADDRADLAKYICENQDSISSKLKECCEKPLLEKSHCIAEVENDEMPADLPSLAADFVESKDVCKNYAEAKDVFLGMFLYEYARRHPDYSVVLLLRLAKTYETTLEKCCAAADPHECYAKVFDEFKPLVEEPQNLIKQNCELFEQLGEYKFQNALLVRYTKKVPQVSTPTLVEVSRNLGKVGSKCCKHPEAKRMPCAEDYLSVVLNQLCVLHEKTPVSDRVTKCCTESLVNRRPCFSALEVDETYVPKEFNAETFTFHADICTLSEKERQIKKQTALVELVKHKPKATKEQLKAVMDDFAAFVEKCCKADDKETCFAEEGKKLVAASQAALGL

| Binder | HSA |
| --- | --- |
| B1 | 34600 |
| B2 | 11400 |
| B3 | 46700 |
| B4 | 90200 |
| B5 | 2200 |
| B6 | 2450 |
| B7 | 1600 |
| B8 | 3000 |
| B9 | 4100 |
| B10 | 2950 |
| B11 | 25600 |
| B12 | 2880 |
| B13 | 67500 |
| B14 | 2500 |
| B15 | 18900 |
| B16 | 4900 |
| B17 | 7250 |
| B18 | 3040 |
| B19 | 2250 |
| B20 | 33500 |
| B21 | 1850 |
| B22 | 9800 |

| Binder | HSA |
| --- | --- |
| B23 | 10700 |
| B24 | 24600 |
| B25 | 3050 |
| B26 | 14400 |
| B27 | 9950 |
| B28 | 17800 |
| B29 | 3350 |
| B30 | 3920 |
| B31 | 3300 |
| B32 | 2650 |
| B33 | 2100 |
| B34 | 2800 |
| B35 | 5200 |
| B36 | 2250 |
| B37 | 34000 |
| B38 | 20800 |
| B39 | 10400 |
| B40 | 74700 |
| B41 | 3350 |
| B42 | 2250 |
| B43 | 6000 |

From patent US20210145976A1
